According to patent US20080090770A1, “Modulation of Muc1 Mediated Signal Transduction” (priority 2003, published 2008):

What was measured:
HtrA2 = biological target: T1, HtrA2 (Homo sapiens, UniProt O43464); experiment: TransSignal PDZ Domain Array: binding of His-tagged MUC1/CD to immobilized PDZ domain, without or with 7-mer peptide
T1 construct: purchased Panomics Inc
T1 sequence (O43464 364-445 limits assumed): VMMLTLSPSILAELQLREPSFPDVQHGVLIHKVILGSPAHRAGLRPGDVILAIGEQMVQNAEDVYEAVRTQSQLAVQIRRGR
Method: (§1) The ability of the MUC1 cytoplasmic domain (CD) to interact with a panel of 28 human PDZ domain proteins was screened. A His-tagged MUC1/CD was produced to affect the screening. The CD of MUC1 was amplified by RT-PCR from cDNA derived from human breast cancer MCF7 cells. The MUC1/CD gene was cloned into a bacterial vector pEXP (Panomics Inc.) to generate a His-tagged fusion protein (pEXP/MUC1/CD). DH5α E. Coli cells were transformed with pEXP/MUC1/CD and incubated overnight in 1 ml of LB medium containing 100 μg/ml ampicillin (LB/AMP). Eighty μl of the overnight culture was transferred to a tube of 4 ml of LB/AMP and allowed to grow until an OD600 of approximately 0.5-0.8 was evident. IPTG was added to the culture at a final concentration of 0.5 mM to induce expression of the His-tagged MUC1/CD protein. After 4 hours, cells were harvested in 1× resuspension buffer (Panomics Inc.) and lysed by sonication. The lysate was centrifuged at 14000 rpm for 5 minutes at 4° C. The resulting supernatant (bacterial extract) was collected and stored at −80° C. until use.
(§2) The TransSignal PDZ Domain Array kit (Panomics Inc.) was used comprising membranes on which the following 28 human PDZ proteins had been immobilized: MINT-2 d1, Mint-3 d1, Mint-3 d2, Mint-1 d1, Mint1 d2, CSKP, Dlg d1, Dlg1 d3, Dlg2 d2, Dlg4 d3, DVL1, DVL3, DVLL, GIPC, HtrA2, LIMK2, MPP2, NEB1, OMP25, hCLIM1, PTPH1, ZO-2 d1, hPTP1E d1, hPTP1E d5, RGS12, RIL, ZO-1 d3 and ZO-2 d3.
(§3) Membranes were submerged in a small tray with 20 ml of x1 blocking buffer (Panomics Inc.), and shaken at room temperature for 1 hour. The blocking buffer was removed and membranes rinsed twice with x1 Wash Buffer (Panomics inc.) at room temperature. The bacterial extract was diluted to a final concentration of 0.1 mg/ml in 20 ml Resuspension Buffer (Panomics Inc.). The membrane was incubated with the dilute bacterial extract overnight at 4° C. with gentle shaking. After incubation, the membrane was washed three times with 40 ml 1× Wash Buffer at room temperature for 10 minutes each wash. The membrane was then incubated with 20 ml diluted Anti-Histidine HRP Conjugate (Panomics inc., 1:3000 dilution in 1× Wash Buffer) at room temperature for 1 hour. The membrane was then washed with 40 ml 1× Wash Buffer at room temperature for 10 minutes each wash. The membrane was then visualized using […] ECL (Amersham Biosciences) utilizing the Detection Buffers as supplied by Panomics.
(§4) His-tagged MUC1/CD (bacterial extract) was incubated in the absence or presence of a 20-fold molar excess of the 7-mer peptide AAASANL (SEQ ID NO: 133) with the appropriate membrane-immobilized PDZ domain, as described above in Example 4.

Mint-1 d2 = biological target: T2, Mint-1 d2 (Homo sapiens, UniProt Q02410); experiment: as above
T2 construct: Mint-1 d2 (XII protein, PDZ domain #2); purchased Panomics Inc
T2 sequence (Q02410 747-822 limits assumed): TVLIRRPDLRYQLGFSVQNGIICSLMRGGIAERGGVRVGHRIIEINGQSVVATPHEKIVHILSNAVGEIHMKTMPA
Method: as §1, §2, §3, §4

Mint-2 d1 = biological target: T3, Mint-2 d1 (Homo sapiens, UniProt Q99767); experiment: as above
T3 construct: Mint-2 d1(XIIL protein, PDZ domain #1); purchased Panomics Inc
T3 sequence (Q99767 568-654 limits assumed): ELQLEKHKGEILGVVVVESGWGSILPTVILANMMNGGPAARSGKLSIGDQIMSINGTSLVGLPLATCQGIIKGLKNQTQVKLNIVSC
Method: as §1, §2, §3, §4

PTPH1 = biological target: T4, PTPH1 (Homo sapiens, UniProt P26045); experiment: as above
T4 construct: purchased Panomics Inc
T4 sequence (P26045 510-582 limits assumed): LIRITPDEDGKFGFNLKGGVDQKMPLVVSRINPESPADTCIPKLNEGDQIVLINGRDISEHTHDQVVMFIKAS
Method: as §1, §2, §3, §4

RIL = biological target: T5, RIL (Homo sapiens, UniProt P50479); experiment: as above
T5 construct: purchased Panomics Inc
T5 sequence (P50479 1-84 limits assumed): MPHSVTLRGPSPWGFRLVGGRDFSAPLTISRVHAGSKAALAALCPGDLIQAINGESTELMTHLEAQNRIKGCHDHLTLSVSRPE
Method: as §1, §2, §3, §4

OMP25 = biological target: T6, OMP25 (Homo sapiens, UniProt P57105); experiment: TransSignal PDZ Domain Array: binding of His-tagged MUC1/CD to immobilized PDZ domain; details: bacterial extract 0.1 mg/ml, panel of 28 PDZ proteins
T6 construct: The TransSignal PDZ Domain Array kit (Panomics Inc.) was used; purchased Panomics Inc
T6 sequence (P57105 13-100 limits assumed): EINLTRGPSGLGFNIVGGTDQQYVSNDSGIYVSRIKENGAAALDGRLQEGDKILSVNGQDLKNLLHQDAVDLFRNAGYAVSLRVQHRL
Method: as §1, with “use. […]” for “use.”

PDZ domains = experiment: Modified ELISA: profile (matrix) screen of biotinylated peptide against individual GST-PDZ domain fusion proteins; type: binding, human
Text: Profile Results Peptides corresponding to the C-terminus were able to bind a number of PDZ domains in a concentration dependent manner. […] Identities of the interacting PDZ domains are listed directly above or next to the bar representing the absorbance in the assay.
The results, shown in FIGS. 11, 12 and 13, represent the absorbance and standard deviation of interactions of higher relative strength. The data in FIG. 13 for PDZK1, PTPL1 d5, MUPP1 d4 and INADL d1 have high standard deviations and thus require further verification to validate intensity of binding.

[1] = bacterial extract 0.1 mg/ml, panel of 28 PDZ proteins

## MUC1/CD: His-tagged fusion protein of the MUC1 cytoplasmic domain, used as bacterial extract
HtrA2; [1]
  Binding of his-tagged MUC1/CD to PDZ domain: Binding was observed
Mint-1 d2; [1]
  Binding of his-tagged MUC1/CD to PDZ domain: Binding was observed
Mint-2 d1; [1]
  Binding of his-tagged MUC1/CD to PDZ domain: Binding was observed
PTPH1; [1]
  Binding of his-tagged MUC1/CD to PDZ domain: Binding was observed
RIL; [1]
  Binding of his-tagged MUC1/CD to PDZ domain: Binding was observed
OMP25
  Binding of his-tagged MUC1/CD to PDZ domain: Binding was observed

## NGGSSLSYTNPAVAATSANL [MUC1 peptide]
PDZ domains; MUC1 peptide concentration 0.01 μm, FIG. 3
  Interactions with higher absorbance readings in PDZ profile: seven interactions are observed to give higher absorbance readings
PDZ domains; MUC1 peptide concentration 0.1 μm, FIG. 4
  Interactions with higher absorbance readings in PDZ profile: more interactions are observed

## AAASANL [7-mer peptide]
HtrA2; 20-fold molar excess of 7-mer
  Inhibition of binding of his-tagged MUC1/CD to PDZ domain: inhibited the binding
Mint-1 d2; 20-fold molar excess of 7-mer
  Inhibition of binding of his-tagged MUC1/CD to PDZ domain: inhibited the binding
Mint-2 d1; 20-fold molar excess of 7-mer
  Inhibition of binding of his-tagged MUC1/CD to PDZ domain: inhibited the binding
PTPH1; 20-fold molar excess of 7-mer
  Inhibition of binding of his-tagged MUC1/CD to PDZ domain: inhibited the binding
RIL; 20-fold molar excess of 7-mer
  Inhibition of binding of his-tagged MUC1/CD to PDZ domain: inhibited the binding
